Assay results: the supplement of paper PMC7877785
± gives the uncertainty stated by the source.

Test: self-splicing fitness, log relative to wild type (ln ratio); higher = more splicing; Tetrahymena group I intron in knt gene, E. coli kanamycin selection, DiMSum; sequences stand for … in CUCUCU…GGAGGGAAAAGUUAUCAGGCAUGCACCUGGUAGCUAGUCUUUAAACCAAUAGAUUGCAUCGGUUUAAAAGGCAAGACCGUCAAAUUGCGGGAAAGGGGUCAACAGCCGUUCAGUACCAAGUCUCAGGGGAAACUUUGAGAUGGCCUUGCAAAGGGUAUGGUAAUAAGCUGACGGACAUGGUCCUAACCACGCAGCCAAGUCCUAAGUCAACAGAUCUUCUGUUGAUAUGGAUGCAGUUCACAGACUAAAUGUCGGUCGGGGAAGAUGUAUUCUUCUCAUAAGAUAUAGUCGGACCUCUCCUUAAUGGGAGCUAGCGGAUGAAGUGAUGCAACACUGGAGCCGCUGGGAACUAAUUUGUAUGCGAAAGUAUAUUGAUUAGUUUUGGAGUACUCGUGGUCG
Method in brief: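 Fitness was computed with DiMSum as the error-weighted combination of replicate fold changes, kanamycin versus none, each normalised to wild type. The library randomised all eight intron nucleotides of the P1ex region, with the intron placed in the knt kanamycin-resistance gene on pET-22b(+) in E. coli BL21(DE3). Six replicate transformations were grown overnight at 37°C or 30°C on LB agar with or without 25 μg/mL kanamycin, plus 100 μg/mL carbenicillin, 50 μM IPTG and 0.2% rhamnose. Pooled colonies were amplicon-sequenced on an Illumina HiSeq 2500.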

| Sequence | self-splicing fitness (ln) (30 °C) | self-splicing fitness (ln) (37 °C) |
| --- | --- | --- |
| GCACAGCAAUAUUACGUAAG | -1.38 ± 0.06 | -0.717 ± 0.079 |
| GCACAGCAAUAUUACGUGAG | 0.0789 ± 0.047 | 0.0342 ± 0.06 |
| GCACAGCAAUAUUACGUUGU | -3.71 ± 0.12 | -2.74 ± 0.12 |
| GCAGAGCAAUAUUACGACGG | -2.22 ± 0.2 | -1.21 ± 0.18 |
| GCAGAGCAAUAUUACGACUC | -1.83 ± 0.15 | -1.38 ± 0.17 |
| GCAGAGCAAUAUUACGCAGG | -4.06 ± 0.39 | -2.2 ± 0.22 |
| GCAGAGCAAUAUUACGCGAC | – | -2.27 ± 0.36 |
| GCAGAGCAAUAUUACGCUUU | – | -3.01 ± 0.27 |
| GCAGAGCAAUAUUACGGAAG | -2.98 ± 0.28 | -1.65 ± 0.18 |
| GCAGAGCAAUAUUACGGUGC | -2.67 ± 0.19 | -1.9 ± 0.24 |
| GCAGAGCAAUAUUACGGUUC | -2.66 ± 0.28 | -1.58 ± 0.24 |
| GCAGAGCAAUAUUACGGUUU | -2.82 ± 0.17 | -2.08 ± 0.15 |
| GCAGAGCAAUAUUACGUAUG | -2.86 ± 0.35 | -1.4 ± 0.42 |
| GCAGAGCAAUAUUACGUUUC | -4.1 ± 0.39 | -2.27 ± 0.44 |
| GCAUAGCAAUAUUACGAAUU | -2.48 ± 0.2 | -1.61 ± 0.2 |
| GCAUAGCAAUAUUACGAGAG | -2.71 ± 0.27 | -2.35 ± 0.21 |
| GCAUAGCAAUAUUACGAGCA | -1.39 ± 0.23 | -0.718 ± 0.2 |
| GCAUAGCAAUAUUACGAUAG | -3.12 ± 0.17 | -2.34 ± 0.2 |
| GCAUAGCAAUAUUACGAUCG | -1.04 ± 0.11 | -0.34 ± 0.12 |
| GCAUAGCAAUAUUACGCACU | -0.629 ± 0.09 | -0.277 ± 0.13 |
| GCAUAGCAAUAUUACGCAGG | -2.58 ± 0.21 | -1.35 ± 0.22 |
| GCAUAGCAAUAUUACGCCAA | -4.09 ± 0.4 | -2.76 ± 0.35 |
| GCAUAGCAAUAUUACGCCAG | -2.88 ± 0.42 | -2.94 ± 0.48 |
| GCAUAGCAAUAUUACGCGCU | – | -2.39 ± 0.31 |
| GCAUAGCAAUAUUACGCGGU | -3.29 ± 0.16 | -1.77 ± 0.16 |

| Sequence | self-splicing fitness (ln) (30 °C) | self-splicing fitness (ln) (37 °C) |
| --- | --- | --- |
| GCAUAGCAAUAUUACGGACG | -1.7 ± 0.088 | -0.659 ± 0.12 |
| GCAUAGCAAUAUUACGGCCU | -1.44 ± 0.11 | -0.683 ± 0.11 |
| GCAUAGCAAUAUUACGGCGA | -0.526 ± 0.15 | -0.873 ± 0.15 |
| GCAUAGCAAUAUUACGGCUA | -1.16 ± 0.069 | -0.431 ± 0.069 |
| GCAUAGCAAUAUUACGGUCC | -1.71 ± 0.098 | -1.48 ± 0.11 |
| GCAUAGCAAUAUUACGGUUG | -2.82 ± 0.099 | -1.39 ± 0.11 |
| GCAUAGCAAUAUUACGUCAA | -2.89 ± 0.25 | -1.82 ± 0.18 |
| GCAUAGCAAUAUUACGUCGG | -2.24 ± 0.14 | -1.47 ± 0.13 |
| GCAUAGCAAUAUUACGUGGC | -2.72 ± 0.32 | -2.15 ± 0.31 |
| GCAUAGCAAUAUUACGUGGG | -3.68 ± 0.13 | -2.82 ± 0.11 |
| GCAUAGCAAUAUUACGUUCA | -1.41 ± 0.11 | -0.882 ± 0.13 |
| GCAUAGCAAUAUUACGUUUC | -4.77 ± 0.26 | -3.01 ± 0.15 |
| GCCAAGCAAUAUUACGACGC | -0.669 ± 0.11 | 0.3 ± 0.14 |
| GCCAAGCAAUAUUACGAGCG | -2.34 ± 0.12 | -1.08 ± 0.13 |
| GCCAAGCAAUAUUACGAGGA | -1.37 ± 0.1 | -0.561 ± 0.1 |
| GCCAAGCAAUAUUACGAUAU | -2.75 ± 0.12 | -2.01 ± 0.13 |
| GCCAAGCAAUAUUACGAUCA | -3.6 ± 0.21 | -1.2 ± 0.11 |
| GCCAAGCAAUAUUACGAUGG | -3.61 ± 0.15 | -1.79 ± 0.16 |
| GCCAAGCAAUAUUACGCCAA | -2.4 ± 0.23 | -1.19 ± 0.15 |
| GCCAAGCAAUAUUACGCCCC | -1.02 ± 0.21 | -0.946 ± 0.22 |
| GCCAAGCAAUAUUACGCCCG | -2.72 ± 0.29 | -0.836 ± 0.32 |
| GCCAAGCAAUAUUACGCUGC | -3.01 ± 0.27 | -2.04 ± 0.28 |
| GCCAAGCAAUAUUACGCUUG | -3.72 ± 0.12 | -2.41 ± 0.14 |
| GCCAAGCAAUAUUACGGAUC | -0.959 ± 0.071 | -0.179 ± 0.098 |
| GCCAAGCAAUAUUACGGGUU | -2.48 ± 0.09 | -1.79 ± 0.1 |

| Sequence | self-splicing fitness (ln) (30 °C) | self-splicing fitness (ln) (37 °C) |
| --- | --- | --- |
| GCCAAGCAAUAUUACGGUGG | -3.54 ± 0.15 | -1.26 ± 0.14 |
| GCCAAGCAAUAUUACGUAAG | -1.37 ± 0.11 | -0.513 ± 0.13 |
| GCCAAGCAAUAUUACGUCUG | -3.62 ± 0.19 | -2.02 ± 0.16 |
| GCCAAGCAAUAUUACGUGCC | -3.36 ± 0.25 | -0.392 ± 0.17 |
| GCCAAGCAAUAUUACGUUCG | -3.08 ± 0.17 | -1.22 ± 0.13 |
| GCCAAGCAAUAUUACGUUGC | -2.91 ± 0.13 | -0.915 ± 0.15 |
| GCCAAGCAAUAUUACGUUUU | -2.86 ± 0.085 | -1.3 ± 0.093 |
| GCCCAGCAAUAUUACGAAGA | -1.46 ± 0.12 | -0.344 ± 0.14 |
| GCCCAGCAAUAUUACGACGG | -3.59 ± 0.25 | -3.13 ± 0.33 |
| GCCCAGCAAUAUUACGAUUA | -1.71 ± 0.1 | -0.936 ± 0.089 |
| GCCCAGCAAUAUUACGCACG | -3.39 ± 0.2 | – |
| GCCCAGCAAUAUUACGCCGG | -3.34 ± 0.27 | -2.9 ± 0.47 |
| GCCCAGCAAUAUUACGCGAC | -2.9 ± 0.17 | -1.55 ± 0.14 |
| GCCCAGCAAUAUUACGGAAC | -1 ± 0.055 | -0.0936 ± 0.079 |
| GCCCAGCAAUAUUACGGACC | -3.47 ± 0.23 | -2.94 ± 0.31 |
| GCCCAGCAAUAUUACGGGAU | -1.74 ± 0.081 | -1.25 ± 0.1 |
| GCCCAGCAAUAUUACGGUAC | -1.27 ± 0.059 | -0.241 ± 0.073 |
| GCCCAGCAAUAUUACGUACA | -2.17 ± 0.1 | -0.789 ± 0.096 |
| GCCCAGCAAUAUUACGUCAU | -2.82 ± 0.1 | -1.29 ± 0.097 |
| GCCCAGCAAUAUUACGUCCU | -1.19 ± 0.11 | -0.722 ± 0.17 |
| GCCCAGCAAUAUUACGUCUU | -0.849 ± 0.061 | -0.668 ± 0.09 |
| GCCCAGCAAUAUUACGUGUA | -0.725 ± 0.046 | -0.0902 ± 0.058 |
| GCCCAGCAAUAUUACGUUCG | -3.71 ± 0.18 | -2.52 ± 0.22 |
| GCCGAGCAAUAUUACGACUA | -0.948 ± 0.16 | -2.21 ± 0.27 |
| GCCGAGCAAUAUUACGAUUA | -1.44 ± 0.13 | -1.39 ± 0.15 |

| Sequence | self-splicing fitness (ln) (30 °C) | self-splicing fitness (ln) (37 °C) |
| --- | --- | --- |
| GCCGAGCAAUAUUACGAUUC | -1.3 ± 0.13 | 0.294 ± 0.17 |
| GCCGAGCAAUAUUACGGACC | -2.47 ± 0.35 | -1.51 ± 0.39 |
| GCCGAGCAAUAUUACGGCAU | -4.31 ± 0.46 | -3.06 ± 0.35 |
| GCCGAGCAAUAUUACGGCUU | – | -2.08 ± 0.41 |
| GCCGAGCAAUAUUACGGUAG | -1.99 ± 0.15 | -3.24 ± 0.33 |
| GCCGAGCAAUAUUACGGUGC | -2.75 ± 0.24 | -2.48 ± 0.29 |
| GCCGAGCAAUAUUACGUACG | -2.46 ± 0.43 | -1.56 ± 0.26 |
| GCCGAGCAAUAUUACGUCAG | -3.33 ± 0.16 | -1.87 ± 0.19 |
| GCCGAGCAAUAUUACGUCGA | -2.36 ± 0.2 | -0.182 ± 0.14 |
| GCCGAGCAAUAUUACGUCGG | -4.39 ± 0.46 | – |
| GCCGAGCAAUAUUACGUGGA | -1.68 ± 0.12 | -1.76 ± 0.15 |
| GCCUAGCAAUAUUACGAACA | -2.17 ± 0.22 | -1.03 ± 0.19 |
| GCCUAGCAAUAUUACGACCA | -1.08 ± 0.14 | -1.34 ± 0.13 |
| GCCUAGCAAUAUUACGACCC | -1.59 ± 0.21 | -0.272 ± 0.25 |
| GCCUAGCAAUAUUACGAGAC | -1.85 ± 0.16 | 0.662 ± 0.12 |
| GCCUAGCAAUAUUACGAUGU | -0.317 ± 0.081 | 0.35 ± 0.12 |
| GCCUAGCAAUAUUACGCCAU | – | -1.68 ± 0.45 |
| GCCUAGCAAUAUUACGCCGU | -1.01 ± 0.15 | -0.292 ± 0.13 |
| GCCUAGCAAUAUUACGCGCG | -1.66 ± 0.23 | -1.18 ± 0.22 |
| GCCUAGCAAUAUUACGCUUA | -1.01 ± 0.1 | -0.807 ± 0.11 |
| GCCUAGCAAUAUUACGGGAA | -0.327 ± 0.091 | 0.158 ± 0.11 |
| GCCUAGCAAUAUUACGGGGA | -0.34 ± 0.067 | -0.0121 ± 0.09 |
